Here are results for one molecule from US20050048070A1 (published 2005).

One test deals with T1, bovine serum albumin (bovine, UniProt P02769 25-607).
T1 construct: Irrelevant antigen in the ELISA; also called BSA
The test can be described thus: ELISA on coated antigens (data not shown).

The next test deals with T2, ovalbumin (UniProt P01012 2-386).
T2 construct: Irrelevant antigen in the ELISA
T2 sequence (looked up): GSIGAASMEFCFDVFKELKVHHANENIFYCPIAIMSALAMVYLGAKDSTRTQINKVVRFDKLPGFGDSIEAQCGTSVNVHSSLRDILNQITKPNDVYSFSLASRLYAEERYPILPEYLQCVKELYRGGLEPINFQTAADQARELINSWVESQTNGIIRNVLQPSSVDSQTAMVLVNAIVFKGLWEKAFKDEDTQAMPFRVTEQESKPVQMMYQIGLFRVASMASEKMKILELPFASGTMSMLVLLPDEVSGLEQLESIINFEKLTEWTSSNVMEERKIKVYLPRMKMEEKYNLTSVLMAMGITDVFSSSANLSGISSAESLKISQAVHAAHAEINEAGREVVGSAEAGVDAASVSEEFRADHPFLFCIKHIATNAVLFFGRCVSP
Kind of test: ELISA on coated antigens (data not shown).

T1 sequence (P02769 25-607 limits assumed): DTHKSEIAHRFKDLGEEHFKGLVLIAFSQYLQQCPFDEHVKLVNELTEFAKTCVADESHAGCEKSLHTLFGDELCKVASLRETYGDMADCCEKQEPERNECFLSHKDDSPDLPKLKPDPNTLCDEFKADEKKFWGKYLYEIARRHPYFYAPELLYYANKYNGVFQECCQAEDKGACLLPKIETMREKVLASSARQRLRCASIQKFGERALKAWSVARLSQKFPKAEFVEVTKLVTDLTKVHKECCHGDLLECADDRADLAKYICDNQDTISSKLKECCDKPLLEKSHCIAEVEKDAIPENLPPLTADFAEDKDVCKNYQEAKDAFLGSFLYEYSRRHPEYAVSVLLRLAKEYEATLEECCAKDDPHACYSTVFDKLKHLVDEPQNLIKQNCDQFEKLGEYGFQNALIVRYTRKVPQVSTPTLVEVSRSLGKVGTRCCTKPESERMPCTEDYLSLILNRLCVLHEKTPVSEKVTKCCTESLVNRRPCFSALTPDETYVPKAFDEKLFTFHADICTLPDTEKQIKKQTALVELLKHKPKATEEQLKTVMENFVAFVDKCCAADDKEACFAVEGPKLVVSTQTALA
Procedure for bovine serum albumin: (§1) ELISA wells (Costar) were coated overnight at 4° C. with 50 μl of antigen (1-10 μg/ml) in 0.1 M bicarbonate buffer, pH 8.6. DNA in PBS was dried on the ELISA wells at 37° C. The wells were washed twice with PBS, blocked by filling the wells with 3% BSA in PBS for 1 h at 37° C., and incubated with human Fab samples or intact human IgM antibody for 2 h at 37° C. Plates were washed 10 times with PBS-Tween and bound Fab was detected with alkaline phosphatase (AP) labeled goat anti-human IgG F(ab′)₂ (Pierce Chemical Co, Rockford, Ill.) diluted 500 fold in PBS or alkaline phosphatase-labeled rabbit anti-human κ-chain (Sigma) diluted 1000 fold in PBS. Bound antibody was visualized with para-nitrophenylphosphate (Sigma)(1 mg/ml, 1 mM MgCl₂, 10% (w/v) diethanolamine, pH 9.6) and read at 405 nm.
Procedure for ovalbumin: as §1

B1: recombinant B9165 Fab (Fab, V domains shown)
VH: GAEVKKPGASVKVSCKASDYTFSSYYMHWVRQAPGQGLEWMGIINPSGGSTSYAQKFQGRVTMTRDTSTNTVYMELSSLRSEDTAVYYCARDQVVVAATLSNYGMDVWGQGTTVTVSS
VL: ELTQSPGTLSLSPGERATLSCRASQSVSSSYLAWYQQKPGQAPRLLIYDASNRATGIPARFSGSGSGTDFTLTISSLEPEDFAVYYCQQGTNWGIAFGQGTRLDIKR
notes: Soluble Fab (mu Fd region plus kappa light chain) cloned from hybridoma B9165 by phage display in pComb3 and expressed in E. coli; also called cloned B9165 Fab; Fab of COU-1
With B1, the binding result in the test with bovine serum albumin and with ovalbumin was “no binding” throughout.
